Experimental findings from PMC5829251, “NAD^+ analog reveals PARP-1 substrate-blocking mechanism and allosteric communication from catalytic center to DNA-binding domains” (Nature Communications, 2018) are described below.

In this series the target is PARP-1 WT (human) (UniProt P09874). In words: fluorescence polarization. Conditions: 250 mM NaCl, FP affinity: 12 mM Hepes pH 8.0, 250 mM NaCl, 4% glycerol, 5.7 mM beta-mercaptoethanol, 0.05 mg/ml BSA, RT, 5 nM probe, FP competition: same but 60 mM KCl, 8 mM.
Sequence of PARP-1 WT (human) (P09874 whole entry): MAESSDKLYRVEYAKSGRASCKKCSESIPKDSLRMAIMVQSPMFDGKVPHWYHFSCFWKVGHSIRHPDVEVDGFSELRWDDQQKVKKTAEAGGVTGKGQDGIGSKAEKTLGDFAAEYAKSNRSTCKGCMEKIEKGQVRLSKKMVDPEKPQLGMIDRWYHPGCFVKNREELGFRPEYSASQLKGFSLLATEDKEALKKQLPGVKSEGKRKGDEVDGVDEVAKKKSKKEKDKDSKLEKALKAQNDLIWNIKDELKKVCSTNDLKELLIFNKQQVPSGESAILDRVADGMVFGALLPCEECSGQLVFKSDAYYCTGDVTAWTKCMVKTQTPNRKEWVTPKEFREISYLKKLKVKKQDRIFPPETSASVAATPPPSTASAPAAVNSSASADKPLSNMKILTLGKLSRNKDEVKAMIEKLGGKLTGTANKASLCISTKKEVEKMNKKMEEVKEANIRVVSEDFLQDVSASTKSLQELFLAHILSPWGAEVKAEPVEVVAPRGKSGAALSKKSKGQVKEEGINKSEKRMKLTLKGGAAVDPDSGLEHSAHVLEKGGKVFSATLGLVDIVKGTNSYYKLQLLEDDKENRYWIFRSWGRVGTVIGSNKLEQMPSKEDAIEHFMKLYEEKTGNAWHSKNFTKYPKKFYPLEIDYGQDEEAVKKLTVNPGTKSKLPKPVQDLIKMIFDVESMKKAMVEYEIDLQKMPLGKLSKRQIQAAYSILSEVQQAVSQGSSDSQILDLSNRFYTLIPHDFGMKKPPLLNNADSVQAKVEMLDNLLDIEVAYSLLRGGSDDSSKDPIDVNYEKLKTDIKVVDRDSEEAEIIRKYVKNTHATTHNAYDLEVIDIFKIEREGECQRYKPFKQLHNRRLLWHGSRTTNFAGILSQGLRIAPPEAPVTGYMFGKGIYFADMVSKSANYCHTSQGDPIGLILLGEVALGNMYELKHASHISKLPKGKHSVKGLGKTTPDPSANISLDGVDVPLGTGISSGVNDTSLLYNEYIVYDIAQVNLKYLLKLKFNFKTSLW

Sequence “GCTGAGCTTCTGGTGAAGCTCAGCTCGCGGCAGCTGGTGCTGCCGCGA [nick dumbbell DNA, FAM]” yielded a binding signal (fold higher affinity than without BAD) (100 uM BAD) of 10. Moreover, the binding signal (100 uM benzamide, scale: fold) was 1.
